The target of assay [1] is YPet. Kind of assay: FRET or BRET.
In assay [2] the target is YPet. As to the kind of experiment: FRET or BRET. The source holds these as a separate data set.

Read-outs that look alike come from different tables or passages of the source.

In the case of ECFP, in the assay with YPet [1], the FRET efficiency, oxidized (0 mmol/L DTT) was 0.288 and the FRET efficiency, reduced (10 mmol/L DTT) is 0.376.
In the assay with YPet [2], CyPet yielded an FRET efficiency, oxidized (0 mmol/L DTT) of 0.371 and an FRET efficiency, reduced (10 mmol/L DTT) of 0.375. In the assay with YPet [1], the FRET efficiency, oxidized (0 mmol/L DTT) is 0.27 and the FRET efficiency, reduced (10 mmol/L DTT) was 0.265.

Source of the values: publication PMC3158092.
